Assays:
[1] = target: T1, human NT5E-Biotin (NT5E, GenbankID: NP_002517.1, position: 1-552) (human, UniProt P21589 27-552, biotin (site not stated)); assay: ELISA on SA-captured NT5E-Biotin; antibody 0.333 ug/mL; replicate 1
T1 construct: range 1-552; Biotinylated antigen captured on streptavidin-coated plates; also called HNT5E-Biotin; human NTSE-Biotin
T1 sequence (looked up): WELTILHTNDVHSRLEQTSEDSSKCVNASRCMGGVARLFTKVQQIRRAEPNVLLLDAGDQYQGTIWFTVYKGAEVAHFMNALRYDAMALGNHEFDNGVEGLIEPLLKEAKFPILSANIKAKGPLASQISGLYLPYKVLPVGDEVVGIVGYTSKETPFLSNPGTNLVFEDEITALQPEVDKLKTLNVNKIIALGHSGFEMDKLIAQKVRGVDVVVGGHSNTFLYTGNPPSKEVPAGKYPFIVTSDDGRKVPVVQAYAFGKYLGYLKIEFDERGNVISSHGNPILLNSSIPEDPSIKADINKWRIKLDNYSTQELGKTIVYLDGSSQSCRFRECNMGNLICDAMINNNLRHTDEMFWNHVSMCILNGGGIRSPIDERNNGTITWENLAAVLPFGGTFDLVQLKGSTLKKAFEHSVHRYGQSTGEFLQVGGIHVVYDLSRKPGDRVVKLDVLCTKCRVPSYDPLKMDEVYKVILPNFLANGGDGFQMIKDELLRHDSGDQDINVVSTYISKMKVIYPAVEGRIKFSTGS
Method: (§1) Experimental steps: a microplate was coated with streptavidin at 2 μg/mL, and then the microplate was incubated at 4° C. for 12 hours. The antigen-coated microplate was rinsed for once with PBST after incubation, and then blocked with a PBST solution containing 1% BSA as a microplate blocking solution for 2 hours. After blocking, the microplate was washed 3 times with PBST. […] The antibody serially diluted with the PBST solution was added to the wells of the microplate. The microplate containing the test antibodies was incubated at 37° C. for 30 minutes, and then washed 3 times with PBST. After the plate was washed, the secondary antibody working solution of HRP-labeled goat anti-human IgG (H+L) (Jackson, Cat. No. 109-035-088) diluted in a ratio of 1:5000 or HRP-labeled goat anti-mouse IgG (H+L) (Jackson, Cat. No. 115-035-062) diluted in a ratio of 1:5000 was added, and then the plate was incubated at 37° C. for 30 minutes. After incubation, the plate was washed 4 times with PBST, TMB (Neogen, 308177) was added in the dark for color development for 5 min, and then a stop solution was added to terminate chromogenic reaction. The microplate was put into a microplate reader immediately, and the OD value of each well in the microplate was read at the light wavelength of 450 nm. The data were analyzed by SoftMax Pro 6.2.1.

[2] = target: T1, human NT5E-Biotin (NT5E, GenbankID: …); assay: ELISA on SA-captured NT5E-Biotin; antibody 0.333 ug/mL diluted 1:3; replicate 1
Method: as §1

[3] = target: T1, human NT5E-Biotin (NT5E, GenbankID: …); assay: ELISA on SA-captured NT5E-Biotin; antibody 0.333 ug/mL; replicate 2
Method: as §1

[4] = target: T1, human NT5E-Biotin (NT5E, GenbankID: …); assay: ELISA on SA-captured NT5E-Biotin; antibody 0.333 ug/mL diluted 1:81; replicate 2
Method: as §1

[5] = target: T1, human NT5E-Biotin (NT5E, GenbankID: …); assay: ELISA on SA-captured NT5E-Biotin; antibody 0.333 ug/mL diluted 1:3; replicate 2
Method: as §1

[6] = target: T1, human NT5E-Biotin (NT5E, GenbankID: …); assay: ELISA on SA-captured NT5E-Biotin; antibody 0.333 ug/mL diluted 1:243; replicate 1
Method: as §1

[7] = target: T1, human NT5E-Biotin (NT5E, GenbankID: …); assay: ELISA on SA-captured NT5E-Biotin; antibody 0 (blank); replicate 2
Method: as §1

[8] = target: T1, human NT5E-Biotin (NT5E, GenbankID: …); assay: ELISA on SA-captured NT5E-Biotin; antibody 0.333 ug/mL diluted 1:729; replicate 1
Method: as §1

[9] = target: T1, human NT5E-Biotin (NT5E, GenbankID: …); assay: ELISA on SA-captured NT5E-Biotin; antibody 0.333 ug/mL diluted 1:729; replicate 2
Method: as §1

[10] = target: T1, human NT5E-Biotin (NT5E, GenbankID: …); assay: ELISA on SA-captured NT5E-Biotin; antibody 0 (blank); replicate 1
Method: as §1

[11] = target: T1, human NT5E-Biotin (NT5E, GenbankID: …); assay: ELISA on SA-captured NT5E-Biotin; antibody 0.333 ug/mL diluted 1:27; replicate 2
Method: as §1

[12] = target: T1, human NT5E-Biotin (NT5E, GenbankID: …); assay: ELISA on SA-captured NT5E-Biotin; antibody 0.333 ug/mL diluted 1:243; replicate 2
Method: as §1

[13] = target: T1, human NT5E-Biotin (NT5E, GenbankID: …); assay: ELISA on SA-captured NT5E-Biotin; antibody 0.333 ug/mL diluted 1:81; replicate 1
Method: as §1

[14] = target: T1, human NT5E-Biotin (NT5E, GenbankID: …); assay: ELISA on SA-captured NT5E-Biotin; antibody 0.333 ug/mL diluted 1:9; replicate 1
Method: as §1

B1: murine anti-CD73 monoclonal antibody 19F3 (antibody, V domains shown)
VH: EVQLQQSGPELVKPGASMRMSCKASGYSFTGYTMNWVKQSHGKNLEWIGLINPYNAGTSYNQKFKGKATLTVDKSSSTAYMELLSLTSEDSAVYYCARSEYRYGGDYFDYWGQGTTLTVSS
VL: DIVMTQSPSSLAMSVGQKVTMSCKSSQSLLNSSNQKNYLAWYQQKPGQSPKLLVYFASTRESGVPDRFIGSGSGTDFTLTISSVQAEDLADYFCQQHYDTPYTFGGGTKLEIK
notes: Mouse hybridoma antibody purified on protein A; also called murine antibody 19F3; antibody secreted by hybridoma cell line LT014 (CD73-19F3)
OD 450 nm [1]: 2.71 OD450
OD 450 nm [2]: 2.74 OD450
OD 450 nm [3]: 2.74 OD450
OD 450 nm [4]: 1.77 OD450
OD 450 nm [5]: 2.76 OD450
OD 450 nm [6]: 1 OD450
OD 450 nm [7]: 0.062 OD450
OD 450 nm [8]: 0.446 OD450
OD 450 nm [9]: 0.47 OD450
OD 450 nm [10]: 0.06 OD450
OD 450 nm [11]: 2.36 OD450
OD 450 nm [12]: 1 OD450
OD 450 nm [13]: 1.69 OD450
OD 450 nm [14]: 2.57 OD450

— patent publication US20230159655A1 (AKESO BIOPHARMA, published 2023)
